Test results taken from patent publication US20250257130A1 (NONA BIOSCIENCES SUZHOU, published 2025).

B1: PR000374 (antibody, human IgG1, kappa, V domains shown)
VH: EVQLVESGGGLVQPGRSLRLSCTASGSDINDYPITWVRQAPGQGLEWIGFINSGGSTWYASWVKGRFTISRDDSKSIAYLQMNSLKTEDTAVYYCARGYSTYYRDFNIWGQGTLVTVSS
VL: DIQMTQSPSSLSASVGDRVTINCQASQSIDSNLAWFQQKPGQPPKLLIYRASNLASGVPDRFSGSGSGTDFTLTISSLEAEDVATYYCLGGVGAVSYRTSFGGGTKVEIKR
notes: positive control; also called Bench marker 1
B2: PR303125 (antibody, human IgG1, V domains shown)
VH: EVQLLESGGGLVQPGGSLRLSCAASGFTFSSHAMSWVRQAPGKGLEWVSAISGSGDSTHYAASVKGRFTISRDNSKNTLYLQMNSLRAEDTAVYYCETLLRFLESLGNDGFKIWGQGTMVTVSS
notes: HCAb (heavy chain-only, human IgG1 Fc), no light chain
B3: PR303191 (antibody, human IgG1, V domains shown)
VH: EVQLLESGGGLVQPGGSLRLSCAASGFIFGSYAMSWVRQAPGKGLEWVSGISGTGGNTYYADSVKGRFTISRDNSKNTLYLQMNSLRAEDTAVYFCERGITIHGVVIIPPDYRGQGTLVTVSS
notes: as for B2

Key:
[1] = molecular target: T1, Human ROR1-ECD-his (Acro Biosystems RO1-H522y) (human, UniProt Q01973 30-406); experiment: BLI in-tandem competition; competitor: PR000374
T1 construct: extracellular domain; bought protein; also called hROR1-ECD-his; hu-ROR1-ECD-his
T1 sequence (Q01973 30-406): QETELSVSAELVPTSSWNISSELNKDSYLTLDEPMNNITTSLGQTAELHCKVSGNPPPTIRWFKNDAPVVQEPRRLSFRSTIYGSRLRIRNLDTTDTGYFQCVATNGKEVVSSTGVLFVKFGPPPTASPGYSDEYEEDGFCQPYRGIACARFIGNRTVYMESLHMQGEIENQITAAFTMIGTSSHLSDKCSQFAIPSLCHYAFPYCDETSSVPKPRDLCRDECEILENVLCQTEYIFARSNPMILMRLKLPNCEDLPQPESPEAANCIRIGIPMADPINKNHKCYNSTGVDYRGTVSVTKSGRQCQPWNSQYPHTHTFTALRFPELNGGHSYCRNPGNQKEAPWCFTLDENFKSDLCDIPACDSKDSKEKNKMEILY
Source text: (§1) To determine if anti-ROR1 antibodies bind to human ROR1 on different or approximate binding epitopes, the ForteBio Octet® RED96e platform was used to perform epitope competition experiments on the anti-ROR1 antibodies. Human ROR1 protein (Acrobiosystems, #RO1-H522y) was biotinylated and then captured onto SA biosensors (ForteBio, #18-5020) to reach loading level of 0.3-0.4 nm. The in-tandem competition assay format was applied and it contains two association steps. Firstly, the antigen-loaded biosensors bind to each antibody (a.k.a, First antibody, 1st Ab) with a saturating concentration of 200 nM for 180 seconds to reach equilibrium and then secondly bind to the competing antibodies (a.k.a, Second antibody, 2nd Ab) of 200 nM for 180 seconds. The second binding signals were recorded as the 100% signal of each antibody when the first antibodies were replaced by kinetics buffer. All the binding data were analyzed using ForteBio Data Analysis 11.0 software. The inhibition rate is calculated by the following formula: […]

[2] = molecular target: T1, Human ROR1-ECD-his (Acro Biosystems …); experiment: BLI in-tandem, row = 1st Ab; competitor (2nd Ab): PR000374
Source text: as §1

[3] = molecular target: T2, human ROR1 on cells (HEK293T-hROR1, PANC-1, A549) (human, UniProt Q01973 30-937); experiment: flow cytometry, PANC-1 cells
T2 construct: whole, on cells; one molecule for the three cell lines; also called huROR1; cell surface ROR1
T2 sequence (Q01973 30-937): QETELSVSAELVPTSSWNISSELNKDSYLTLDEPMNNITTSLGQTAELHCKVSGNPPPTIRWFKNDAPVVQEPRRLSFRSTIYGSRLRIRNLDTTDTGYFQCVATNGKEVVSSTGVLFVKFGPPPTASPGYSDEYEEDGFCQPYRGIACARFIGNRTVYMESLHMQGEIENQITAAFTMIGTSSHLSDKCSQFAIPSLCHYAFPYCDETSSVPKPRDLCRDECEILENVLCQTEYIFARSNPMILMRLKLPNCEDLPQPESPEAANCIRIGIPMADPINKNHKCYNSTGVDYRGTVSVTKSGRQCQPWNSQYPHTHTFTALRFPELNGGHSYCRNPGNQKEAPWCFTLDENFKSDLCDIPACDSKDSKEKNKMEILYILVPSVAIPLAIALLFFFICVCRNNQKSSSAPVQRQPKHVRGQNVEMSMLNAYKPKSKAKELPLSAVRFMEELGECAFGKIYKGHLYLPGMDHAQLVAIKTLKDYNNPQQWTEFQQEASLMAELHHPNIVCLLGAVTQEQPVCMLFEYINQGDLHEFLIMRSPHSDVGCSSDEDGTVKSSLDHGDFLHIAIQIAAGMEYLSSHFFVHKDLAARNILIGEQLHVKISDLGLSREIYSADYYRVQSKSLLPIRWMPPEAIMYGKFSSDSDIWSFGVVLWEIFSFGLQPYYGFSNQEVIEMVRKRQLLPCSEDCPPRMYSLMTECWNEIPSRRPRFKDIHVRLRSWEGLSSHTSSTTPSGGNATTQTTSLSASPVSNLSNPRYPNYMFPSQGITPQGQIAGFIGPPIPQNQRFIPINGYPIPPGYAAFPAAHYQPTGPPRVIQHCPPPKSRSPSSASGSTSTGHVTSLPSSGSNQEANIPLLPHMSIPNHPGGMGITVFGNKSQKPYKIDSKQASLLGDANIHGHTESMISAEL
Method: (§2) In brief, anti-ROR1 antibodies were serially diluted in staining buffer (PBS containing 2% FBS). Antibody solution was incubated with 1×10⁵ cells at 4° C. for 1 hour. […] After 1-hour incubation at 4° C., cells were washed twice with staining buffer and subjected to flow cytometry. PR000374 (Bench marker 1) and non-relevant IgG isotype control (Crownbio) were used as positive and negative controls, respectively.

[4] = molecular target: T1, Human ROR1-ECD-his (Acro Biosystems …); experiment: BLI in-tandem, row = 1st Ab; competitor (2nd Ab): PR005340
Source text: as §1

[5] = molecular target: T2, human ROR1 on cells (HEK293T-hROR1, …); experiment: flow cytometry, A549 cells
Method: as §2

[6] = molecular target: T1, Human ROR1-ECD-his (Acro Biosystems …); experiment: BLI in-tandem competition; competitor: PR303199
Source text: as §1

[7] = molecular target: T3, cynomolgus ROR1 on CHO-K1-cynoROR1 cells (cynomolgus monkey, UniProt A0A2K5WTX7 30-937); experiment: flow cytometry on CHOK1-cynoROR1 cells, MFI (APC-A Median) [middle panel, letter not given]
T3 construct: whole, on cells
Method: (§3) Binding of recombinant anti-ROR1 antibodies to human or cynomolgus ROR1-overexpressing cells was tested by flow cytometry. In this example, ROR1-expressing cell lines are HEK293T cell lines that had been transfected to express human ROR1 on the surface (HEK293T-hu ROR1, KYINNO BIOTECHNOLOGY CO., LTD, Catalog #KC-1018), CHO-K1 cell lines that had been transfected to express cynomolgus ROR1 (CHOK1-cyno ROR1), PANC-1 (ATCC, catalog: CRL-1469) or A549 cell lines (Shanghai Institute of Biochemistry and Cell Biology, Chinese Academy of Sciences).
as §2

[8] = molecular target: T2, human ROR1 on cells (HEK293T-hROR1, …); experiment: flow cytometry on PANC-1 cells, MFI (APC-A Median)
Method: as §3, §2

[9] = molecular target: T1, Human ROR1-ECD-his (Acro Biosystems …); experiment: BLI in-tandem competition; competitor: PR303145
Source text: as §1

[10] = molecular target: T1, Human ROR1-ECD-his (Acro Biosystems …); experiment: BLI in-tandem competition; competitor: PR303189
Source text: as §1

[11] = molecular target: T1, Human ROR1-ECD-his (Acro Biosystems …); experiment: BLI in-tandem, row = 1st Ab; competitor (2nd Ab): PR007417
Source text: as §1

[12] = molecular target: T1, Human ROR1-ECD-his (Acro Biosystems …); experiment: BLI in-tandem competition; competitor: PR303125
Source text: as §1

[13] = molecular target: T1, Human ROR1-ECD-his (Acro Biosystems …); experiment: BLI in-tandem, row = 1st Ab; competitor (2nd Ab): PR007424
Source text: as §1

[14] = molecular target: T2, human ROR1 on cells (HEK293T-hROR1, …); experiment: flow cytometry on A549 cells, MFI (Mean)
Method: as §3, §2

[15] = molecular target: T1, Human ROR1-ECD-his (Acro Biosystems …); experiment: BLI, ROR1-His on HIS1K sensor, antibody in solution
Method in brief: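 His-tagged ROR1 (20 nM) captured on HIS1K biosensors; serially diluted antibodies in kinetics buffer as analyte. Association and dissociation rate constants measured by Octet biolayer interferometry, sensors regenerated with 10 mM glycine-HCl pH 1.5 between cycles.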

Binder | Inhibition (%) [1] [%] | Inhibition (%) [2] [%] | EC50 [3] [µg/mL] | MAX(MFI) [3] [MFI] | Inhibition (%) [4] [%] | EC50 [5] [µg/mL] | MAX(MFI) [5] [MFI] | Inhibition (%) [6] [%] | EC50 (read off the curve) [7] [nM] | EC50 (read off the curve) [8] [nM] | Inhibition (%) [9] [%] | Inhibition (%) [10] [%] | Inhibition (%) [11] [%] | Inhibition (%) [12] [%] | Inhibition (%) [13] [%] | EC50 (read off the curve) [14] [µg/mL] | Kd [15] [nM] | koff [15] [s⁻¹] | kon [15] [M⁻¹ s⁻¹]
B1 | 109 | 111 | 0.905 | 442000 | -7.48 | 0.61 | 695000 | -61 | ~4 | ~5 | -61 | -52 | -10.5 | -45 | -8.53 | ~0.6 |  |  | 
B2 | -24 |  | 0.463 | 883000 |  | 0.16 | 668000 | -48 |  |  | -41 | -24 |  | 104 |  | ~0.2 | < 0.001 | < 1e-07 | 165000
B3 | -38 |  |  | 364000 |  | 0.01 | 650000 | -57 |  |  | -70 | -99 |  | 80 |  |  | 0.0395 | 0.000115 | 2.9e+06
